The results in this text go back to paper PMC7910607, “Structure-guided insights into heterocyclic ring-cleavage catalysis of the non-heme Fe (II) dioxygenase NicX” (Nature Communications, 2021).

The target of data set [1] is T1, NicX (2,5-dihydroxypyridine dioxygenase) (Pseudomonas putida, UniProt Q88FY1).
T1 construct: full-length WT in pET-24a, C-terminal 6xHis tag, E. coli BL21(DE3), ~39 kDa, homohexamer, mononuclear Fe(II); domains residues 2-151 and 152-350
T1 sequence (Q88FY1 1-350): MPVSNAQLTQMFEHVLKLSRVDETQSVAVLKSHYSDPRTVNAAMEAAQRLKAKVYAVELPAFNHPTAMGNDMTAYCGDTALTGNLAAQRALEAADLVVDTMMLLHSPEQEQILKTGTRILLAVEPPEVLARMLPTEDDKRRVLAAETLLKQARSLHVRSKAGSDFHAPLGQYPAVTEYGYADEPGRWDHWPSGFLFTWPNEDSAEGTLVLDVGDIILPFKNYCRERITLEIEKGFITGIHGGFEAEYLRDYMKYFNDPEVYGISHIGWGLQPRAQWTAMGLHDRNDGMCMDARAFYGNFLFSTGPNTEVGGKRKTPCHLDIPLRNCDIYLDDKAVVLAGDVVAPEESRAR
Nature of the data set: X-ray crystal structure, […] Å, soaked crystals. Format: binding. Conditions: soaked with 5 mM Fe2+, then 5 mM DHP and 20 mM sodium dithionite.

The subject of another data set is T2, Oc1ccc(O)nc1.
T2 construct: full-length WT in pET-24a, C-terminal 6xHis tag, E. coli BL21(DE3), ~39 kDa, homohexamer, mononuclear Fe(II); domains residues 2-151 and 152-350
Nature of the data set: purified protein. Format: biochemical, Pseudomonas putida. The conditions noted are these: 20 mM Tris-HCl pH 8.0, 50 µM FeCl2, 25 °C, O2 (air).

Substrate in the data set “purified protein”: Oc1ccc(O)nc1
As to the kind of experiment: purified protein. Format: biochemical, Pseudomonas putida. The conditions noted are these: 20 mM Tris-HCl pH 8.0, 50 µM FeCl2, 25 °C, O2 (air).

Data set [2] concerns the molecule itself. Nature of the data set: crystal structure; hanging-drop vapor diffusion at 20 °C, 20% PEG 3350, pH 7.0; six molecules in the asymmetric unit; also crystals soaked with Fe2+ and DHP.

Regarding `O=CNC(=O)/C=C\C(=O)O` [NFM, N-formylmaleamic acid], the “X-ray crystal structure, 2.20 Å, soaked crystals” value in data set [1] (active site of subunits A and B, formed in crystal from DHP) is “the other subunits (A and B) contain the product NFM”. As for `Oc1ccc(O)nc1` [DHP, 2,5-dihydroxypyridine], the “X-ray crystal structure, 2.20 Å, soaked crystals” value in data set [1] (active site of subunits C, D, E, F) is “four subunits (C, D, E, and F) of the six constituent molecules”. For the molecule “NicX (2,5-dihydroxypyridine dioxygenase) (Pseudomonas putida KT2440; V175F)”, the Km (usually the concentration of substrate that gives half-maximal velocity) with Oc1ccc(O)nc1 is 117.9 ± 3.68 µM. Regarding “NicX (2,5-dihydroxypyridine dioxygenase) (Pseudomonas putida KT2440; E308A)”, the Km in the data set on Oc1ccc(O)nc1 came out at 95.85 ± 3.68 µM.

B1: NicX (2,5-dihydroxypyridine dioxygenase) (Pseudomonas putida KT2440) (protein)
chain: MPVSNAQLTQMFEHVLKLSRVDETQSVAVLKSHYSDPRTVNAAMEAAQRLKAKVYAVELPAFNHPTAMGNDMTAYCGDTALTGNLAAQRALEAADLVVDTMMLLHSPEQEQILKTGTRILLAVEPPEVLARMLPTEDDKRRVLAAETLLKQARSLHVRSKAGSDFHAPLGQYPAVTEYGYADEPGRWDHWPSGFLFTWPNEDSAEGTLVLDVGDIILPFKNYCRERITLEIEKGFITGIHGGFEAEYLRDYMKYFNDPEVYGISHIGWGLQPRAQWTAMGLHDRNDGMCMDARAFYGNFLFSTGPNTEVGGKRKTPCHLDIPLRNCDIYLDDKAVVLAGDVVAPEESRAR
notes: full-length WT in pET-24a, C-terminal 6xHis tag, E. coli BL21(DE3), ~39 kDa, homohexamer, mononuclear Fe(II); domains residues 2-151 and 152-350
On to B1, for which, in “purified protein”, the Km turned out to be 94.9 ± 3.84 µM.

B2: SeMet-substituted NicX (enzyme, Pseudomonas putida KT2440, UniProt Q88FY1 1-350, looked up)
chain: MPVSNAQLTQMFEHVLKLSRVDETQSVAVLKSHYSDPRTVNAAMEAAQRLKAKVYAVELPAFNHPTAMGNDMTAYCGDTALTGNLAAQRALEAADLVVDTMMLLHSPEQEQILKTGTRILLAVEPPEVLARMLPTEDDKRRVLAAETLLKQARSLHVRSKAGSDFHAPLGQYPAVTEYGYADEPGRWDHWPSGFLFTWPNEDSAEGTLVLDVGDIILPFKNYCRERITLEIEKGFITGIHGGFEAEYLRDYMKYFNDPEVYGISHIGWGLQPRAQWTAMGLHDRNDGMCMDARAFYGNFLFSTGPNTEVGGKRKTPCHLDIPLRNCDIYLDDKAVVLAGDVVAPEESRAR
modifications: selenomethionine (SeMet) substituted
notes: NicX, 2,5-dihydroxypyridine dioxygenase of Pseudomonas putida KT2440, selenomethionine-substituted form of the full-length construct; Same construct as m1, expressed with selenomethionine for SAD phasing; also called SeMet-NicX; Se-NicX; source: E. coli B834(DE3) in M9 minimal media, purified (Ni-NTA, Superdex200 gel filtration)
As to B2, the binding result in data set [2] is given as “binds”.

B3: 2,5-Dihydroxypyridine dioxygenase (NicX) from Pseudomonas putida KT2440 (enzyme, UniProt Q88FY1 1-350, looked up)
chain: MPVSNAQLTQMFEHVLKLSRVDETQSVAVLKSHYSDPRTVNAAMEAAQRLKAKVYAVELPAFNHPTAMGNDMTAYCGDTALTGNLAAQRALEAADLVVDTMMLLHSPEQEQILKTGTRILLAVEPPEVLARMLPTEDDKRRVLAAETLLKQARSLHVRSKAGSDFHAPLGQYPAVTEYGYADEPGRWDHWPSGFLFTWPNEDSAEGTLVLDVGDIILPFKNYCRERITLEIEKGFITGIHGGFEAEYLRDYMKYFNDPEVYGISHIGWGLQPRAQWTAMGLHDRNDGMCMDARAFYGNFLFSTGPNTEVGGKRKTPCHLDIPLRNCDIYLDDKAVVLAGDVVAPEESRAR
notes: NicX, 2,5-dihydroxypyridine dioxygenase of Pseudomonas putida KT2440, full-length wild type; residues 2-350 described in the structure; Cloned into pET-24a between NdeI and HindIII with a C-terminal His tag; in PDB 7CN3 the crystals were soaked with Fe2+ and DHP (subunits C-F hold DHP, A and B hold NFM); also called WT NicX; wild type NicX; source: E. coli BL21(DE3), purified (Ni-NTA, Superdex200 …)
Take B3: the stoichiometry N (as a rule, a count of units in the complex or per binding partner) in data set [2] came to 6.
